Results as given in US12338277.

Experiments:
Test in all cases: cell-based or functional assay
[1] = biological target: HIV-1 Env of pseudovirus 191821_E6_1 (HIV-1)
[2] = biological target: HIV-1 Env of pseudovirus 211-9 (HIV-1)
[3] = biological target: HIV-1 Env of pseudovirus 249M B10 (HIV-1)
[4] = biological target: HIV-1 Env of pseudovirus 3365.v2.c2 (HIV-1)
[5] = biological target: HIV-1 Env of pseudovirus 6244_13_85_4576 (HIV-1)
[6] = biological target: HIV-1 Env of pseudovirus 6480.v4.c25 (HIV-1)
[7] = biological target: HIV-1 Env of pseudovirus 6535.3 (HIV-1)
[8] = biological target: HIV-1 Env of pseudovirus 6811.v7.c18 (HIV-1)
[9] = biological target: HIV-1 Env of pseudovirus 9004SS_A3_4 (HIV-1)
[10] = biological target: HIV-1 Env of pseudovirus BJOX025000.01.1 (HIV-1)
[11] = biological target: HIV-1 Env of pseudovirus CNE19 (HIV-1)
[12] = biological target: HIV-1 Env of pseudovirus CNE58 (HIV-1)
[13] = biological target: HIV-1 Env of pseudovirus CNE8 (HIV-1)
[14] = biological target: HIV-1 Env of pseudovirus Ce1172_H1 (HIV-1)
[15] = biological target: HIV-1 Env of pseudovirus Ce1176_A3 (HIV-1)
[16] = biological target: HIV-1 Env of pseudovirus Ce2060_G9 (HIV-1)
[17] = biological target: HIV-1 Env of pseudovirus Du156.12 (HIV-1)
[18] = biological target: HIV-1 Env of pseudovirus RHPA4259.7 (HIV-1)
[19] = biological target: HIV-1 Env of pseudovirus THRO4156.18 (HIV-1)
[20] = biological target: HIV-1 Env of pseudovirus ZM109F.PB4 (HIV-1)
[21] = biological target: HIV-1 Env of pseudovirus ZM233M.PB6 (HIV-1)
[22] = biological target: HIV-1 envelope of pseudovirus 1394C9G1(Rev-) (HIV-1)
[23] = biological target: HIV-1 envelope of pseudovirus 231966.c02 (HIV-1)
[24] = biological target: HIV-1 envelope of pseudovirus 263-8 (HIV-1)
[25] = biological target: HIV-1 envelope of pseudovirus 62357_14_03_4589 (HIV-1)
[26] = biological target: HIV-1 envelope of pseudovirus 6535.3 (HIV-1)
[27] = biological target: HIV-1 envelope of pseudovirus 6545.v4.c1 (HIV-1)
[28] = biological target: HIV-1 envelope of pseudovirus 6811.v7.c18 (HIV-1)
[29] = biological target: HIV-1 envelope of pseudovirus A07412M1.vrc12 (HIV-1)
[30] = biological target: HIV-1 envelope of pseudovirus BF1266.431a (HIV-1)
[31] = biological target: HIV-1 envelope of pseudovirus BJOX028000.10.3 (HIV-1)
[32] = biological target: HIV-1 envelope of pseudovirus C2101.c01 (HIV-1)
[33] = biological target: HIV-1 envelope of pseudovirus CNE17 (HIV-1)
[34] = biological target: HIV-1 envelope of pseudovirus CNE5 (HIV-1)
[35] = biological target: HIV-1 envelope of pseudovirus CNE52 (HIV-1)
[36] = biological target: HIV-1 envelope of pseudovirus CNE58 (HIV-1)
[37] = biological target: HIV-1 envelope of pseudovirus CNE8 (HIV-1)
[38] = biological target: HIV-1 envelope of pseudovirus Ce1176_A3 (HIV-1)
[39] = biological target: HIV-1 envelope of pseudovirus Ce2060_G9 (HIV-1)
[40] = biological target: HIV-1 envelope of pseudovirus Ce703010054_2A2 (HIV-1)
[41] = biological target: HIV-1 envelope of pseudovirus Du172.17 (HIV-1)
[42] = biological target: HIV-1 envelope of pseudovirus MS208.A1 (HIV-1)
[43] = biological target: HIV-1 envelope of pseudovirus QH0692.42 (HIV-1)
[44] = biological target: HIV-1 envelope of pseudovirus RHPA4259.7 (HIV-1)
[45] = biological target: HIV-1 envelope of pseudovirus T255-34 (HIV-1)
[46] = biological target: HIV-1 envelope of pseudovirus THRO4156.18 (HIV-1)
[47] = biological target: HIV-1 envelope of pseudovirus YU-2 (HIV-1)
[48] = biological target: HIV-1 envelope of pseudovirus ZM214M.PL15 (HIV-1)
[49] = biological target: HIV-1 envelope of pseudovirus ZM247v1(Rev-) (HIV-1)
[50] = biological target: HIV-1 envelope spike of pseudovirus QH0692.42 (HIV-1)
[51] = biological target: HIV-1 envelope spike of pseudovirus TRJO4551.58 (HIV-1)

10-996 (antibody), sequence (VH): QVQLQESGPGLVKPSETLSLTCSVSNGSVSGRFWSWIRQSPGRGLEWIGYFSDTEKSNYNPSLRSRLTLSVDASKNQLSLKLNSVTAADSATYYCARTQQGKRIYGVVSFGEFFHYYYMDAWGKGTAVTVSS
10-996 (antibody), sequence (VL): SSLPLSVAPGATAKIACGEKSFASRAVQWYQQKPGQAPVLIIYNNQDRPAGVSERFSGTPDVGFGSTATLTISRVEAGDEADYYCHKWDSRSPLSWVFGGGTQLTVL

10-996 (antibody) showed an IC80 (TZM-bl neutralization) [1] of over 50 µg/mL, an IC80 (TZM-bl neutralization) [2] of 3.85 µg/mL and an IC80 (TZM-bl neutralization) [3] of over 50 µg/mL. For the same substance, the IC80 (TZM-bl neutralization) [4] was 1.38 µg/mL, the IC80 (TZM-bl neutralization) [5] was 1.3 µg/mL and the IC80 (TZM-bl neutralization) [6] was 0.049 µg/mL. It also gave an IC80 (TZM-bl neutralization) [7] of 0.046 µg/mL, an IC80 (TZM-bl neutralization) [8] of 0.011 µg/mL and an IC80 (TZM-bl neutralization) [9] of 0.05 µg/mL. It also gave an IC80 (TZM-bl neutralization) [10] of over 50 µg/mL, an IC80 (TZM-bl neutralization) [11] of over 50 µg/mL and an IC80 (TZM-bl neutralization) [12] of 2.22 µg/mL. For the same substance, the IC80 (TZM-bl neutralization) [13] was over 50 µg/mL, the IC80 (TZM-bl neutralization) [14] was 0.173 µg/mL and the IC80 (TZM-bl neutralization) [15] was 0.151 µg/mL. The IC80 (TZM-bl neutralization) [16] was over 50 µg/mL, the IC80 (TZM-bl neutralization) [17] was 0.101 µg/mL and the IC80 (TZM-bl neutralization) [18] was 0.163 µg/mL. It also gave an IC80 (TZM-bl neutralization) [19] of over 50 µg/mL, an IC80 (TZM-bl neutralization) [20] of over 50 µg/mL and an IC80 (TZM-bl neutralization) [21] of 4.52 µg/mL. For the same substance, the IC50 (TZM-bl neutralization) [22] was 0.086 µg/mL, the IC50 (TZM-bl neutralization) [23] was over 50 µg/mL and the IC50 (TZM-bl neutralization) [24] was 10.9 µg/mL. The IC50 (TZM-bl neutralization) [25] was 29.3 µg/mL, the IC50 (TZM-bl neutralization) [26] was 0.017 µg/mL and the IC50 (TZM-bl neutralization) [27] was over 50 µg/mL. For the same substance, the IC50 (TZM-bl neutralization) [28] was 0.001 µg/mL, the IC50 (TZM-bl neutralization) [29] was 0.008 µg/mL and the IC50 (TZM-bl neutralization) [30] was over 50 µg/mL. The IC50 (TZM-bl neutralization) [31] was over 50 µg/mL, the IC50 (TZM-bl neutralization) [32] was over 50 µg/mL and the IC50 (TZM-bl neutralization) [33] was 4.04 µg/mL. It also gave an IC50 (TZM-bl neutralization) [34] of over 50 µg/mL, an IC50 (TZM-bl neutralization) [35] of 4.53 µg/mL and an IC50 (TZM-bl neutralization) [36] of 0.57 µg/mL. It also gave an IC50 (TZM-bl neutralization) [37] of over 50 µg/mL, an IC50 (TZM-bl neutralization) [38] of 0.043 µg/mL and an IC50 (TZM-bl neutralization) [39] of over 50 µg/mL. For the same substance, the IC50 (TZM-bl neutralization) [40] was over 50 µg/mL, the IC50 (TZM-bl neutralization) [41] was 0.173 µg/mL and the IC50 (TZM-bl neutralization) [42] was over 50 µg/mL. For the same substance, the IC50 (TZM-bl neutralization) [43] was 0.396 µg/mL, the IC50 (TZM-bl neutralization) [44] was 0.034 µg/mL and the IC50 (TZM-bl neutralization) [45] was 28.4 µg/mL. The IC50 (TZM-bl neutralization) [46] was over 50 µg/mL, the IC50 (TZM-bl neutralization) [47] was 0.256 µg/mL and the IC50 (TZM-bl neutralization) [48] was 0.413 µg/mL. It also gave an IC50 (TZM-bl neutralization) [49] of 0.055 µg/mL, an IC50 (TZM-bl neutralization assay) [50] of 0.395 µg/mL and an IC80 (TZM-bl neutralization assay) [50] of 1.4 µg/mL. For the same substance, the IC50 (TZM-bl neutralization assay) [51] was 0.516 µg/mL and the IC80 (TZM-bl neutralization assay) [51] was 4.26 µg/mL.
